Data as given in article PMC7394266.

How the values were obtained:
[1] = target: PD-L1 IgV-TIM-3 chimera with M115A in the PD-L1 IgV domain, on transfected COS cells (human) (UniProt Q9NZQ7); assay: flow cytometry on cells
[2] = target: PD-L1 IgV-TIM-3 chimera with K124S in the PD-L1 IgV domain, on transfected COS cells (human) (UniProt Q9NZQ7); assay: flow cytometry on cells

percent decrease in binding against the unmutated chimera [1]: 80%
percent decrease in binding against the unmutated chimera [2]: 80%
Substance: human B7–1-hIgG1 recombinant fusion protein (from UniProt P33681 35-242) (Fc fusion)
